Laboratory results from PMC12557607, “The mitochondrial disulphide relay substrate FAM136A safeguards IMS proteostasis and cellular fitness” (Redox Biology, 2025).

Biological target: the molecule itself
Test: SEC; cleared native HEK293 lysate (100 mM sodium phosphate pH 8.0, 100 mM NaCl, 1 % Triton X-100) on HiLoad 16/600 Superdex 200; fractions blotted for endogenous FAM136A

B1: FAM136A (natural protein)
chain: not shown
notes: FAM136A, endogenous in HEK293 cells; soluble protein of the mitochondrial intermembrane space; also called endogenous FAM136A; source: endogenous, HEK293 lysate
- stoichiometry N: ~2
